Laboratory results: patent US20220125947A1 (published 2022)

target: T1, γδ T cell receptor on human γδ T cells (human); assay: flow cytometry, DRC binding 37 C, human γδ T cells
T1 construct: also called AG000003021 (γδ T cells)
Description: (§1) Binding of antibodies to human γδ T cells or SKW cell lines expressing Vγ9/Vδ2, Vγ9/Vδ2 or Vγ5/Vδ2 was carried out by flow cytometry. Briefly, the cells were centrifuged at 300×g for 5 minutes and the pellet was resuspended in 34 ml fresh media (in RPMI+10% FBS). 50 μL of the cells were then plated (44K cells/well) into assay plates. Samples were incubated for one hour at 37° C. in tissue culture (TC) incubator followed by wash steps by adding 100 μl FACS staining buffer. Secondary detention antibodies (A647 conjugated anti-human IgG Fc specific antibody (2 μg/mL) along with AF488 anti mouse CD3, clone OKT3 at 1 ug/mL) were added at 50 μL/well to appropriate wells according to the plate map. After incubating for 60 minutes at 37° C. in the TC incubator, cells were again washed as described above. This is followed by resuspension in 20 μL/well running buffer containing 1:1000 dilution of Sytox blue dead cell stain and the plates were run on iQue Screener.
(§2) Gating and data analysis: Human anti-human Vγ9 antibody (VG9B2 mAb at 10 nM) was used to mark the gating of positive population. All cells were first gated for singlets on SCS-A vs. SCS-H dot plot, live/dead followed by CD3 positive population, and this subset of CD3 positive population was gated for Vγ9 positive binding using positive control mAb. Cells were also assessed for cell binding of control mAbs by RL1 (A647) Geomeans from the live cell population. Advanced metrics were used and normalization metrics were chosen to calculate fold over background wells containing secondary antibody alone (designated as ‘background’ within ForeCyt settings).

Binder | Max. Activity
VG9B459 (antibody, human IgG1, lambda, IgG1, lambda) heavy: not shown light: QPVLTQPASVSGSPGQSITISCTGTSSDVGGYNYVSWYQQHPGKAPKLMIYEVSNRPSGVSNRFSGSKSGNTASLTISGLQAEDEADYYCSSYTSTSVVFGGGTKLTVLGQPKAAPSVTLFPPSSEELQANKATLVCLISDFYPGAVTVAWKADSSPVKAGVETTTPSKQSNNKYAASSYLSLTPEQWKSHRSYSCQVTHEGSTVEKTVAPTECS | 1090 fold over background
VG9B466 (antibody, human IgG1, lambda, IgG1, lambda) heavy: not shown light: SYELTQPASVSGSPGQSITISCTGTSSDVGGYNYVSWYQQHPGKAPKLMIYEVSNRPSGVSNRFSGSKSGNTASLTISGLQAEDEADYYCSSYTSTSVVFGGGTKLTVLGQPKAAPSVTLFPPSSEELQANKATLVCLISDFYPGAVTVAWKADSSPVKAGVETTTPSKQSNNKYAASSYLSLTPEQWKSHRSYSCQVTHEGSTVEKTVAPTECS | 946 fold over background
VG9B439 (antibody, human IgG1, lambda, IgG1, lambda) heavy: not shown light: QSALTQPASVSGSPGQSITISCTGTSSDVGGYNYVSWYQQHPGKAPKLMIYEVSNRPSGVSNRFSGSKSGNTASLTISGLQAEDEADYYCSSYTSTSVVFGGGTKLTVLGQPKAAPSVTLFPPSSEELQANKATLVCLISDFYPGAVTVAWKADSSPVKAGVETTTPSKQSNNKYAASSYLSLTPEQWKSHRSYSCQVTHEGSTVEKTVAPTECS | 1240 fold over background
VG9B443 (antibody, human IgG1, lambda, IgG1, lambda) heavy: not shown light: QSALTQPASVSGSPGQSITISCTGTSSDVGGYNYVSWYQQHPGKAPKLMIYEVSNRPSGVSNRFSGSKSGNTASLTISGLQAEDEADYYCSSYTSTSVVFGGGTKLTVLGQPKAAPSVTLFPPSSEELQANKATLVCLISDFYPGAVTVAWKADSSPVKAGVETTTPSKQSNNKYAASSYLSLTPEQWKSHRSYSCQVTHEGSTVEKTVAPTECS | 1010 fold over background
VG9B450 (antibody, human IgG1, lambda, IgG1, lambda) heavy: not shown light: QSVLTQPASVSGSPGQSITISCTGTSSDVGGYNYVSWYQQHPGKAPKLMIYEVSNRPSGVSNRFSGSKSGNTASLTISGLQAEDEADYYCSSYTSTSVVFGGGTKLTVLGQPKAAPSVTLFPPSSEELQANKATLVCLISDFYPGAVTVAWKADSSPVKAGVETTTPSKQSNNKYAASSYLSLTPEQWKSHRSYSCQVTHEGSTVEKTVAPTECS | 928 fold over background
VG9B449 (antibody, human IgG1, lambda, IgG1, lambda) heavy: not shown light: QAVLTQPASVSGSPGQSITISCTGTSSDVGGYNYVSWYQQHPGKAPKLMIYEVSNRPSGVSNRFSGSKSGNTASLTISGLQAEDEADYYCSSYTSTSVVFGGGTKVTVLGQPKAAPSVTLFPPSSEELQANKATLVCLISDFYPGAVTVAWKADSSPVKAGVETTTPSKQSNNKYAASSYLSLTPEQWKSHRSYSCQVTHEGSTVEKTVAPTECS | 1180 fold over background
VG9B453 (antibody, human IgG1, lambda, IgG1, lambda) heavy: not shown light: QSALTQPASVSGSPGQSITISCTGTSSDVGGYNYVSWYQQHPGKAPKLMIYEVSNRPSGVSNRFSGSKSGNTASLTISGLQAEDEADYYCSSYTSTSVVFGGGTKVTVLGQPKAAPSVTLFPPSSEELQANKATLVCLISDFYPGAVTVAWKADSSPVKAGVETTTPSKQSNNKYAASSYLSLTPEQWKSHRSYSCQVTHEGSTVEKTVAPTECS | 1040 fold over background
VG9B437 (antibody, human IgG1, lambda, IgG1, lambda) heavy: not shown light: QSALTQPASVSGSPGQSITISCTGTSSDVGGYNYVSWYQQHPGKAPKLMIYEVSNRPSGVSNRFSGSKSGNTASLTISGLQAEDEADYYCSSYTSTSVVFGGGTKLTVLGQPKAAPSVTLFPPSSEELQANKATLVCLISDFYPGAVTVAWKADSSPVKAGVETTTPSKQSNNKYAASSYLSLTPEQWKSHRSYSCQVTHEGSTVEKTVAPTECS | 885 fold over background

Further lines, results first:

Max. Activity | Binder
1190 fold over background | VG9B68 (antibody, human IgG1, kappa, V domains shown, IgG1, kappa) VH: EVQLVESGAEVKKPGSSVKVSCKASGGTFSTYAISWVRQAPGQGLEWMGGIIPIFGTATYAQRFQDRVMITADKSTTTAYMELSSLRSEDTAVFYCARGVGWGSDYYYGLDVWGQGTMVTVSS VL: EIVMTQSPLSSPVTLGQPASISCRSSQSLVHSDGNTYLSWLQQRPGQSPRLLIYKISNRFSGVPDRFSGSGAGTDFTLRITRVEPEDVGVYYCIQATHHPLTFGGGTRLEIKR
1070 fold over background | VG9B157 (antibody, human IgG1, lambda, V domains shown, IgG1, lambda) VH: EVQLLESGGGLVKPGASLKLSCAASGFTFSNHGMSWVRQTSDKRLEWVASITRGGDTTYYPDNVKGRFTISRENAKNTLYLQMSSLKSDDTALYYCTRGPLTVGYAMDYWGQGTTVTVSS VL: SSELTQDPAVSVALGQTVRITCQGDSLRSYYATWYQQKPGQAPILVIYGENNRPSGIPDRFSGSRSGNTASLTITGAQAEDEADYYCNSRDTGDHHLVFGGGTKLTVLG
1130 fold over background | VG9B204 (antibody, human IgG1, lambda, V domains shown, IgG1, lambda) VH: QVQLQESGPGLVKPSETLSLTCTVSYGSFSSFYWSWIRQPAGKGLEWIGRIYTSGGTIYNPSLKSRVTMSVDTSKNQFSLKLSSVTAADTAVYYCARWLRAFDYWGQGTLVTVSS VL: not shown
1240 fold over background | VG9B454 (antibody, human IgG1, lambda, IgG1, lambda) heavy: not shown light: QAVLTQPASVSGSPGQSITISCTGTSSDVGGYNYVSWYQQHPGKAPKLMIYEVSNRPSGVSNRFSGSKSGNTASLTISGLQAEDEADYYCSSYTSTSVVFGGGTKLTVLGQPKAAPSVTLFPPSSEELQANKATLVCLISDFYPGAVTVAWKADSSPVKAGVETTTPSKQSNNKYAASSYLSLTPEQWKSHRSYSCQVTHEGSTVEKTVAPTECS
895 fold over background | VG9B438 (antibody, human IgG1, lambda, IgG1, lambda) heavy: not shown light: SYELTQPASVSGSPGQSITISCTGTSSDVGGYNYVSWYQQHPGKAPKLMIYEVSNRPSGVSNRFSGSKSGNTASLTISGLQAEDEADYYCSSYTSTSVVFGGGTKLTVLGQPKAAPSVTLFPPSSEELQANKATLVCLISDFYPGAVTVAWKADSSPVKAGVETTTPSKQSNNKYAASSYLSLTPEQWKSHRSYSCQVTHEGSTVEKTVAPTECS
865 fold over background | VG9B457 (antibody, human IgG1, lambda, IgG1, lambda) heavy: not shown light: QAVLTQPASVSGSPGQSITISCTGTSSDVGGYNYVSWYQQHPGKAPKLMIYEVSNRPSGVSNRFSGSKSGNTASLTISGLQAEDEADYYCSSYTSTSVVFGGGTKLTVLGQPKAAPSVTLFPPSSEELQANKATLVCLISDFYPGAVTVAWKADSSPVKAGVETTTPSKQSNNKYAASSYLSLTPEQWKSHRSYSCQVTHEGSTVEKTVAPTECS
886 fold over background | VG9B464 (antibody, human IgG1, lambda, IgG1, lambda) heavy: not shown light: QSALTQPASVSGSPGQSITISCTGTSSDVGGYNYVSWYQQHPGKAPKLMIYEVSNRPSGVSNRFSGSKSGNTASLTISGLQAEDEADYYCSSYTSTSVVFGGGTKLTVLGQPKAAPSVTLFPPSSEELQANKATLVCLISDFYPGAVTVAWKADSSPVKAGVETTTPSKQSNNKYAASSYLSLTPEQWKSHRSYSCQVTHEGSTVEKTVAPTECS
1000 fold over background | VG9B455 (antibody, human IgG1, lambda, IgG1, lambda) heavy: not shown light: SYELTQPASVSGSPGQSITISCTGTSSDVGGYNYVSWYQQHPGKAPKLMIYEVSNRPSGVSNRFSGSKSGNTASLTISGLQAEDEADYYCSSYTSTSVVFGGGTKLTVLGQPKAAPSVTLFPPSSEELQANKATLVCLISDFYPGAVTVAWKADSSPVKAGVETTTPSKQSNNKYAASSYLSLTPEQWKSHRSYSCQVTHEGSTVEKTVAPTECS

target: T2, gamma-delta T cell receptor on human γδ T cells (human); assay: flow cytometry, dose-response binding at 37 C, human γδ T cells
T2 construct: also called AG000003021 (γδ T cells)
Description: as §1, §2

Binder | Max. Activity
VG9B115 (antibody, human IgG1, kappa, V domains shown, IgG1, kappa) VH: QVTLRESGPTLVKPTQTLTLTCTFSGFSLSTYGVGVGWIRQPPGKALEWLALIYWNDDKRYNPSLKSRLTITKDTSKNQVVLTMTNMDPVGTATYYCSHESDWSYYFDYWGQGTMVTVSS VL: EIVLTQSPATLSLSPGERATLSCRASQSVSSYLAWYQQKPGLAPRLLIYDASNRATGIPARFSGSGSGTDFTLTISSLEPVDFAVYYCQQRSSWPWTFGQGTKVDIKR | 1520 fold over background
VG9B27 (antibody, human IgG1, kappa, V domains shown, IgG1, kappa) VH: EVQLVQSGAEVKKPGSSVKVSCKASGGTFSSYVISWVRQAPGQGLEWMGGILPILSTANYAQKFQGRVTITADKSTSTAYMELSSLRSEDTAVYYCARAHDYYYGMDVWGQGTMVTVSS VL: not shown | 1450 fold over background
VG9B163 (antibody, human IgG1, lambda, V domains shown, IgG1, lambda) VH: QVQLVQSGGGLVKPGASLKLSCAASGFTFSNHGMSWVRQTSDKRLEWVASITRGGDTTYYPDNVKGRFTISRENAKNTLYLQMSSLKSDDTALYYCTRGPLTVGYAMDYWGQGTTVTVSS VL: QLVLTQPPSVSAAPGQKVTISCSGNSSNIGHNYVSWYQQLPGTAPKLLIYDNNQRPSGIPDRFSGSKSDTSATLGITGLQTGDEADYYCGIWDSSLSIVVFGGGTKVTVLG | 1350 fold over background

Next, values leading:

Max. Activity | Binder
1410 fold over background | VG9B458 (antibody, human IgG1, lambda, IgG1, lambda) heavy: not shown light: QSVLTQPASVSGSPGQSITISCTGTSSDVGGYNYVSWYQQHPGKAPKLMIYEVSNRPSGVSNRFSGSKSGNTASLTISGLQAEDEADYYCSSYTSTSVVFGGGTKLTVLGQPKAAPSVTLFPPSSEELQANKATLVCLISDFYPGAVTVAWKADSSPVKAGVETTTPSKQSNNKYAASSYLSLTPEQWKSHRSYSCQVTHEGSTVEKTVAPTECS
1400 fold over background | VG9B131 (antibody, human IgG1, kappa, V domains shown, IgG1, kappa) VH: QVQLVQSGGTLVQPGGSLRLSCAVSGFTFSSYDMNWVRQAPGKGLEWVSYISSSSTAKYYADSVKGRFTISRDNAKNSLYLQMNSLWDEDTAVYYCAREDIVVVTPILQHWGQGTLVTVSS VL: EIVMTQSPATLSLSPGERATLSCRASQSVSNYLAWYQQKSGQAPRLLIYDASNRATGIPARFSGSGSGTDFTLTISSLEPEDFAVYCCQQRSNWTFGQGTRLEIKR
